Experimental findings from US10781452B2, “FLT3 receptor antagonists for the treatment or the prevention of pain disorders” (INSTITUT NATIONAL DE LA SANTE ET DE LA RECHERCHE MEDICALE …, priority 2010, dated 2020) are described below.

In experiment [1] the target is T1, ECD of human recombinant FLT3 (Fc-ECDhFLT3) (Homo sapiens, UniProt P36888).
T1 construct: ECD of human or mouse recombinant FLT3 produced in NSO cell line; host or cells: NSO cell line
T1 sequence (P36888 27-543 limits assumed): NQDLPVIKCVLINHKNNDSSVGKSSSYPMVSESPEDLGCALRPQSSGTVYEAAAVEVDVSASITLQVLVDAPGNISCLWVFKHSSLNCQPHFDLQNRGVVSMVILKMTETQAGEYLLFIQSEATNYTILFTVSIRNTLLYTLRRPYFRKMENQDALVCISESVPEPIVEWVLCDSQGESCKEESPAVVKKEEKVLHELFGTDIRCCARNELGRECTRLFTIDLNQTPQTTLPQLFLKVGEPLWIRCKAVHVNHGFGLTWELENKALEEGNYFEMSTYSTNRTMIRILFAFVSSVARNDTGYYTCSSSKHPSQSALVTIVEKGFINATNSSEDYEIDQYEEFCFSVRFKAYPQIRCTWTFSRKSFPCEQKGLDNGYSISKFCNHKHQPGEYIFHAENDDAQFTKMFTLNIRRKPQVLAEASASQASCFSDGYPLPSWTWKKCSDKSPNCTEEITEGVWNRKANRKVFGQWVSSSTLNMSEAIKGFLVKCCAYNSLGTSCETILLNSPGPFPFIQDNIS
In words: ELISA binding to ECD of human recombinant FLT3. The note with it: antibody at 10 μg/mL. Here is the method: (§1) The A3 antibody directed against FLT3 was produced by a phage display strategy and the antibody selection was performed by using ECD of human or mouse recombinant FLT3 produced in NSO cell line. To identify antibodies cross-reacting with both human and mouse FLT3, phages were selected by three rounds of panning, according to methods well known in the art (Philibert, P. et al. A focused antibody library for selecting scFvs expressed at high levels in the cytoplasm. BMC Biotechnol. 7, 81; 2007), first against the ECD of human FLT3, then against the ECD of mouse FLT3 and then against the ECD of human FLT3. A batch of one selected antibody named A3 was tested for its ability to bind to the ECD of human or mouse recombinant FLT3 using an ELISA technique.

Experiment [2] deals with T2, ECD of mouse recombinant FLT3 (Fc-ECDmFLT3) (Mus musculus, UniProt Q00342).
T2 construct: ECD of human or mouse recombinant FLT3 produced in NSO cell line; host or cells: NSO cell line
T2 sequence (Q00342 28-544 limits assumed): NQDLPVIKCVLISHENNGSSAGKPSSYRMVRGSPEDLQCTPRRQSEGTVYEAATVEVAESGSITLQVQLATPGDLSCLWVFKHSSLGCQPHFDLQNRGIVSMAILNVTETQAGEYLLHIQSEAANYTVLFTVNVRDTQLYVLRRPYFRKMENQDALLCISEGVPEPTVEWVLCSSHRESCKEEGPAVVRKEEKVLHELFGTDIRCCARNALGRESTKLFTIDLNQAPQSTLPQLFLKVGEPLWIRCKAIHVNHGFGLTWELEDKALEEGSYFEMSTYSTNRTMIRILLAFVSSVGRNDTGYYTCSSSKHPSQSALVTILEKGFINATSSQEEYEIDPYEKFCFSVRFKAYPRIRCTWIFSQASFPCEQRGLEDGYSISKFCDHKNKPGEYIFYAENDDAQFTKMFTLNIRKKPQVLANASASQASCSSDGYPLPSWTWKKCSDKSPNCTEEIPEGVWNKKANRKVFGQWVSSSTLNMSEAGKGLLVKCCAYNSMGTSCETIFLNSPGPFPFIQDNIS
In words: ELISA binding to ECD of mouse recombinant FLT3. The note with it: antibody at 10 μg/mL. Here is the method:
as §1
(ELISA stands for enzyme-linked immunosorbent assay.)

For the next experiment, the target named is T3, FLT3 (Homo sapiens, UniProt P36888).
T3 construct: expressed in transfected cells; host or cells: RS4-11
T3 sequence (P36888 27-993): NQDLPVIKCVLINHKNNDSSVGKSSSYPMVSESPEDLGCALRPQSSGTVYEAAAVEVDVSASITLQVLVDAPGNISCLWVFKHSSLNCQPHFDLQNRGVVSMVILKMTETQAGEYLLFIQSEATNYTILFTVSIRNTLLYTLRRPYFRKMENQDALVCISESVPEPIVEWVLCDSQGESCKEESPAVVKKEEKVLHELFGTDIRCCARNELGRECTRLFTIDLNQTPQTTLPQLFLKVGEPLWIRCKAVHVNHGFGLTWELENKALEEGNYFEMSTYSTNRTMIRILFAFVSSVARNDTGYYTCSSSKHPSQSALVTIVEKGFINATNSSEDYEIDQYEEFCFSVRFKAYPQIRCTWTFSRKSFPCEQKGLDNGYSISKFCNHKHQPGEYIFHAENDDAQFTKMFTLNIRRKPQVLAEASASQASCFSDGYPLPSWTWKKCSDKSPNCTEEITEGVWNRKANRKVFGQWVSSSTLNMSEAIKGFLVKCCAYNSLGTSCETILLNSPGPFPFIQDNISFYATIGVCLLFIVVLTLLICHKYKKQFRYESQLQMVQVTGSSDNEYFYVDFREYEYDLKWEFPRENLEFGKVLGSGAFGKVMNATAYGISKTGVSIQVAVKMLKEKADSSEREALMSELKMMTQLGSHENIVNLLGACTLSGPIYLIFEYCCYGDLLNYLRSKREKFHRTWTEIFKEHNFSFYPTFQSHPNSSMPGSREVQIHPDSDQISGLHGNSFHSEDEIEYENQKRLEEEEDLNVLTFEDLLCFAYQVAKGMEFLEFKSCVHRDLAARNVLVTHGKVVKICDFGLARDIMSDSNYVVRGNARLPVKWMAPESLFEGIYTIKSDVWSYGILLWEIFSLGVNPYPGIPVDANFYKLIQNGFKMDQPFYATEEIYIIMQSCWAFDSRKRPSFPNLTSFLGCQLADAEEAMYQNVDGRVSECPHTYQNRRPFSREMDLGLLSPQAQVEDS
In words: FL-induced FLT3 auto-phosphorylation assay in RS4-11 cells. The conditions noted are these: antibody at 10 and 100 μg/ml. In kind it is cell-based. On the procedure:
Cell. RS4-11 cells, used for auto-phosphorylation assays, were maintained in RPMI-1640 (Invitrogen) and 10% Fetal Calf Serum. They were transfected as in the case of HEK cells (see above)
Auto-Phosphorylation assays. A density of 50,000 cells per well was used to carry out this assay in suspension in 384-well small volume plates to determine the degree of phosphorylation of FLT3. In the aim to discover antagonist compounds and to develop this assay, we were determined the efficiency of FL on RS4-11 cells.
Cells were incubated with 1 nM of rh-FL in the presence of increasing concentrations of the antibody. In the plates containing RS4-11 cells (5 μL/well), 5 μL of compounds to be tested were added and incubated for 1 h at room temperature prior to the addition of 2 μof rh-FL at 0.1 μM. After incubation of 3 min at room temperature of rh-FL, 4 μl of lysis buffer were added and incubated for 2 h at room temperature. A mix of anti-FLT3 and an anti-TYR-969 FLT3 antibodies labeled with Lumi4-Tb and d2 respectively (4 μL) diluted in Tag-lites) labelling medium, were added on cell lysate. Plates were then incubated at room temperature for 2 h or overnight before signal detection (as above).

B1: A3 antibody: human monoclonal antibody against FLT3; VH SEQ ID NO:1, VL SEQ ID NO:2 (antibody, V domains shown)
VH: EVQLVESGGSLVKPGGSLRLSCAASGFTFSNSYMNWVRQAPGKGLEWISDISGSSRDIDYADFVKGRFTISRDNATNSLYLQMNSLRAEDTAVYYCVRSGNSGMDVWGRGTLVTVSS
VL: QSVLTQPASVSGSPGQSITISCAGTSSDVGGGYYVSWYQQHPGKAPKLMIYYDSYRPSGVSNRFSGSKSGNTASLTISGLQAEDEADYYCSSYTNNSTRVFGGGTKLEIK
modifications: Synthetic VH domain of A3; Synthetic VL region of A3
B1: the “ELISA immunoreactivity against Fc-ECDhFLT3” value in experiment [1] is “generates immunoreactivity”. Moreover, the “ELISA immunoreactivity against Fc-ECDmFLT3” value in experiment [2] is listed as “generates immunoreactivity”. For the same molecule, in the experiment with FLT3, the “FL-induced FLT3 autophosphorylation” value was “inhibits FL-induced FLT3 autophosphorylation”.
